According to patent US7127357 (dated 2006):
Non-standard residues stand in square brackets, D forms with d. No end group written: not given here. pS = N[C@@H](COP(=O)(O)O)C(=O)O

Target: F25Y
Test: binding to CTD phosphopeptide

Binder: Y[pS]PT[pS]PS (also: tetramethylrhodamine label on an amine, place not given here) [CTD Repeat Tyr-P.Ser-Pro-Thr-P.Ser-Pro-Ser]
- Kd: 12 µM
